Experimental data from patent EP3984547A1 (Universitat Pompeu Fabra, dated 2022).
Where no end group is shown, it is not given here.

T1: TWEAK (Peprotech EC, Ltd, U.K.) (UniProt O43508 94-249, limits assumed)
T1 sequence (looked up): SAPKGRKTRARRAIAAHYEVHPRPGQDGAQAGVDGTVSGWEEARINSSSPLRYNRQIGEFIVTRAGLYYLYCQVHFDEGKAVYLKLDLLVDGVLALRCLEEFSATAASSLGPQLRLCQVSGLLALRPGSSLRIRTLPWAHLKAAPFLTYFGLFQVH

T2: Histidine-tagged human TWEAK (His6-TWEAK) protein (R&D Systems) (human, UniProt O43508 93-249, limits assumed)
T2 construct: Bought protein, captured through the His6 tag on an NTA chip and then coupled covalently by amine coupling; also called human His6-TWEAK protein; histidine-tagged TWEAK; not shown: His6 tag
T2 sequence (looked up): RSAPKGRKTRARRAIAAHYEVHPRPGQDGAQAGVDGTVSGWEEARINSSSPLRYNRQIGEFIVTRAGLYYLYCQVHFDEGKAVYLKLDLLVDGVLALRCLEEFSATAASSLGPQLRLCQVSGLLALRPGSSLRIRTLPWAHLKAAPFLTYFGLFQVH


Legend:
[1] = target: T1, TWEAK (Peprotech EC, Ltd, U.K.); assay: cell-based or functional assay
[2] = target: T2, Histidine-tagged human TWEAK …; assay: SPR (Biacore 3000), His6-TWEAK immobilized on NTA chip, peptide as analyte, 1:1 Langmuir fit

| Binder | BIRC2 normalized level of expression (Zscore vs NARS2), RT-PCR, cells with peptide at 450 µM [1] [Zscore] | HSP90B1 normalized level of expression (Zscore vs NARS2), RT-PCR, cells with peptide at 450 µM [1] [Zscore] | IL6 normalized level of expression (Zscore vs NARS2), RT-PCR, cells with peptide at 450 µM [1] [Zscore] | JUN normalized level of expression (Zscore vs NARS2), RT-PCR, cells with peptide at 450 µM [1] [Zscore] | MAP4K4 normalized level of expression (Zscore vs NARS2), RT-PCR, cells with peptide at 450 µM [1] [Zscore] | MAPK14 normalized level of expression (Zscore vs NARS2), RT-PCR, cells with peptide at 450 µM [1] [Zscore] | NFkB2 normalized level of expression (Zscore vs NARS2), RT-PCR, cells with peptide at 450 µM [1] [Zscore] | TNFRSF12A normalized level of expression (Zscore vs NARS2), RT-PCR, cells with peptide at 450 µM [1] [Zscore] | TRAF2 normalized level of expression (Zscore vs NARS2), RT-PCR, cells with peptide at 450 µM [1] [Zscore] | Kd [2] [µM] |
| --- | --- | --- | --- | --- | --- | --- | --- | --- | --- | --- |
| SWYDHMAGDSSY-NH2 [Peptide 1: SWYDHMAGDSSY (SEQ ID NO: 2)] | -0.747 | -1.1 | 0.198 | -0.509 | -1.7 | -1.11 | -1.51 | -1.05 | -0.548 |  |
| TTDGSTGDDLQA-NH2 [Peptide 2: TTDGSTGDDLQA (SEQ ID NO: 1)] | -0.996 | -1.31 | -0.535 | -0.488 | -1.13 | -1.01 | -1.21 | -1.11 | -0.409 | 170 |
| SYTDVQDS-NH2 [Peptide 3: SYTDVQDS (SEQ ID NO: 3)] | -0.115 | -0.468 | -0.972 | -0.206 | -1.36 | -0.585 | -1.15 | -1.08 | -0.577 |  |
| DNGGGNTDIYSE-NH2 [Peptide 4: DNGGGNTDIYSE (SEQ ID NO: 4)] | -0.61 | -0.921 | -0.045 | -0.509 | -1.56 | -1.11 | -1.32 | -1.11 | -0.439 |  |
